Consider 141 substances from the supplement of paper PMC12042874.

± gives the uncertainty stated by the source.

The data set is described as follows: amyloid nucleation score (Sup35N fusion, yeast selection) (log enrichment); library NNK1; higher = more nucleation; inactive = no reads after selection. The method in brief:
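In psi-negative yeast, Sup35N fusions carrying peptides of 20 random codons were induced with 100 μM copper sulfate for 24 hours. The cells then grew 7 days at 30°C on medium lacking adenine and uracil, and plasmid inserts from input and output were Illumina-sequenced, excluding sequences with under 100 input reads. Nucleation score is the DiMSum log enrichment of output over input reads, centred on the mode score of non-aggregating sequences.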
With ARHPECQSCSWRYCLYVVHC, the amyloid nucleation score result was “inactive”.

In the case of FMKSKAAAYS, the amyloid nucleation score is -0.247 ± 0.63.

The substance IGCQLNIRVCLKVILLYVEA displayed an amyloid nucleation score of 0.259 ± 0.95.

Substance QWCVKESAFIYEYRLSGDCR showed an amyloid nucleation score of 0.877 ± 0.32.

Take NSRNDLVMLILLPSSRAGRL: the amyloid nucleation score is 0.325 ± 0.99.

In turn, IFGKTFTGYMVRFGVVHDLA registered an amyloid nucleation score of 0.358 ± 0.41.

TGDRCWLFEGYAFKEHCFAD came in with an amyloid nucleation score of 2.54 ± 0.13.

Substance FNVALFMEI had an amyloid nucleation score of 1.07 ± 0.27.

As to DPPTL, the amyloid nucleation score turned out to be 0.409 ± 0.42.

Take LTAIFSRIFNI: the amyloid nucleation score is -0.997 ± 1.4.

The substance PCFSLLDSQRFVFGAKIILR displayed an amyloid nucleation score of 0.093 ± 0.69.

On to CTSVRVLGSNQCSYGVSKCR, for which the amyloid nucleation score was -0.39 ± 0.39.

DLVAVQESWTLYSLVPQLFY: the amyloid nucleation score is -0.103 ± 0.4.

WIEEIVCIGS showed an amyloid nucleation score of 1.03 ± 0.68.

Substance PCYAVYITAPINV displayed an amyloid nucleation score of 5.94 ± 0.093.

NSCFQSSIYVTSYTWECSP: the amyloid nucleation score result is “inactive”.

For the substance MVVYFNLPAVMLIDCMMSAI, the amyloid nucleation score was determined as 0.708 ± 0.62.

With GSVCHILVGWVAYMWVF, the amyloid nucleation score is -1.18 ± 1.2.

Regarding FSISKLFGLNADTVHTRHKK, the amyloid nucleation score came to 0.073 ± 0.38.

For SMGQHHMGGWVYGRKAEKLS, the amyloid nucleation score was -0.185 ± 0.37.

Regarding LRSNHWNHTCLHNIRGCS, the amyloid nucleation score was 3.42 ± 0.071.

As for LTMGRKMVPYHLVSAMMGTV, the amyloid nucleation score is -0.114 ± 0.57.

Consider HQLLTVL, for which the amyloid nucleation score is -0.997 ± 0.28.

Take WKYVTLELIWWTTLVTAWGT: the amyloid nucleation score was 1.02 ± 0.8.

The substance APHWLLRDPIESTADNDVYY came in with an amyloid nucleation score of 2.73 ± 0.44.

As to ACLCVIRMFHYNGLRH, the amyloid nucleation score came to 0.576 ± 0.76.

As for MTRNHFRYTWSVANMWERGF, the amyloid nucleation score is -0.746 ± 1.3.

Take YSYNYGWTVAEELYNRCIGA: the amyloid nucleation score amounted to 0.266 ± 0.36.

Substance DVWKAGSVGPRQLVRRGGRR had an amyloid nucleation score of 0.259 ± 0.81.

Substance SDASLLTKSVFADGRDQVTR gave an amyloid nucleation score of 0.433 ± 0.28.

Substance TVFSSWLTQGSMYV showed an amyloid nucleation score of 1.48 ± 0.44.

Substance KVLSYWDVSWGMASRFVSCY came in with an amyloid nucleation score of 0.724 ± 0.49.

With VLEISIDSDRAPMCGRRMDL, the amyloid nucleation score came to 0.56 ± 1.

Regarding AFRCCMFAFVFCSSGDSRAE, the amyloid nucleation score stood at 7.392 ± 0.056.

On to CWDKRLNSY, for which the amyloid nucleation score amounted to 0.688 ± 0.61.

On to CYDGDRFIEEA, for which the amyloid nucleation score is 0.364 ± 0.66.

In the case of AFIARVTRFGVTRDPLIRQ, the amyloid nucleation score entry is “inactive”.

Regarding YLDFNHM, the amyloid nucleation score result is “inactive”.

Consider LCMLWLKVKRHRDMRSIGIW, for which the amyloid nucleation score is -0.003 ± 0.42.

Take MYLVVTVRFNWLPRDQFTVL: the amyloid nucleation score was found to be 0.848 ± 0.37.

ENPDW: the amyloid nucleation score amounted to 1.66 ± 0.73.

The substance LNNRE returned an amyloid nucleation score of 0.805 ± 0.78.

In the case of SVRYYLLYHNFIMSSADKLS, the amyloid nucleation score was found to be 6.485 ± 0.05.

Regarding EAYFFEFIKYLSAPAGSGGN, the amyloid nucleation score is -0.855 ± 0.98.

On to CCQRYCCTSGLANNWNRVYH, for which the amyloid nucleation score turned out to be 0.812 ± 0.75.

With RQPANEELPFSVTGK, the amyloid nucleation score was -0.892 ± 0.65.

For RNTVGYVSNTGVLYILTS, the amyloid nucleation score turned out to be 6.24 ± 0.067.

ACDVVIRTWITKDTKGFYRA showed an amyloid nucleation score of 0.488 ± 0.29.

As to WIRHSNNICMM, the amyloid nucleation score is 1.26 ± 0.18.

Turning to CYATMYAQGDRRSGDGCLPT, the amyloid nucleation score is -1.86 ± 1.4.

VKVCHSPKTSYDTVISRGNL showed an amyloid nucleation score of 0.459 ± 0.44.

In the case of NYVIGRVIISMYGNDVTRLP, the amyloid nucleation score was 4.23 ± 0.095.

As to VYASLTL, the amyloid nucleation score is -1.26 ± 1.7.

For RLIFEVFYLTFRVLT, the amyloid nucleation score is -0.457 ± 0.39.

With VWRTQMFRV, the amyloid nucleation score was 0.37 ± 1.1.

LPTIHICLRSAHTRWFA: the amyloid nucleation score was -0.438 ± 0.87.

With CRSTYDQLPEYLST, the amyloid nucleation score is -0.117 ± 0.56.

Regarding AVNSGRWLSVLRRRMESFLV, the amyloid nucleation score stood at 0.203 ± 0.42.

Regarding CNCAKSNVRCLFLFFDGQTR, the amyloid nucleation score came out at 0.775 ± 0.92.

With ISCGCMRVLTRDNLFLKFRF, the amyloid nucleation score worked out at 0.12 ± 0.58.

In turn, LITMGMTRIYILMISDYLKF returned an amyloid nucleation score of 0.701 ± 0.51.

Turning to VERTCGVGTRLFTCYGQVAI, the amyloid nucleation score is -0.3 ± 0.53.

For KTGCVGTS, the amyloid nucleation score entry was “inactive”.

Consider IAIFMYCM, for which the amyloid nucleation score was 7.467 ± 0.055.

Take FSTAM: the amyloid nucleation score worked out at 0.895 ± 0.79.

CCSTSADIHSARNDVWSYSE: the amyloid nucleation score was -0.271 ± 0.88.

As to GMYRVNSWIMSL, the amyloid nucleation score entry is “inactive”.

For the substance FTLCQASYMN, the amyloid nucleation score is -0.655 ± 0.67.

The substance RLDSPDVVSAFCEAALASAS showed an amyloid nucleation score of 0.136 ± 0.76.

Take FYKQLYSAEHKKFSCTAFVK: the amyloid nucleation score result is “inactive”.

Turning to MSRCLIDSIEIFHWTGGRYA, the amyloid nucleation score was -0.386 ± 1.2.

For GNGHWQQVG, the amyloid nucleation score is 0.001 ± 0.33.

In the case of SELEYPTMGVSVVRLCSSSG, the amyloid nucleation score amounted to 0.1 ± 0.48.

Take SSYNLKYLWGCIC: the amyloid nucleation score is 7.263 ± 0.048.

TCLHYAVCMRSLVSQSALFV: the amyloid nucleation score was -0.771 ± 1.7.

Regarding NGCLFILFCILLFKAQPSIA, the amyloid nucleation score turned out to be 0.057 ± 0.78.

The substance VCNCCLHVYIPSRAGNRPMR came in with an amyloid nucleation score of 8.251 ± 0.072.

The substance VFIIRRDLCWRTSFCLQQEL gave an amyloid nucleation score of 0.965 ± 0.18.

ISLLGIWV yielded an amyloid nucleation score of 0.939 ± 0.31.

For the substance FAYGI, the amyloid nucleation score was -0.633 ± 0.62.

For the substance PALDAYSQKFELTCCLDTLH, the amyloid nucleation score entry was “inactive”.

Substance VDDICIIVANSAGRDEQMSM showed an amyloid nucleation score of 1.16 ± 0.56.

EKSCATRLA returned an amyloid nucleation score of 0.374 ± 0.29.

Turning to VAGCNVDIDVNMSCRGDMWK, the amyloid nucleation score was found to be 2.81 ± 0.12.

Substance IYGELLHLWLISEFCDVRNC came in with an amyloid nucleation score of 0.788 ± 0.79.

In turn, TILMASTSYFIPSLP came in with an amyloid nucleation score of 1.38 ± 0.21.

In turn, SVLCHCVLNVWLGWHLWIDP showed an amyloid nucleation score of 0.707 ± 0.53.

HYRYGGLAMFLVWIEMFLYW came in with an amyloid nucleation score of 0.407 ± 1.1.

With LSSPLLS, the amyloid nucleation score was 0.66 ± 0.44.

The substance EIVVIASRTASPDFIN had an amyloid nucleation score of 1.01 ± 0.74.

In turn, LTHYEFGTFFYKVWSNDRHK had an amyloid nucleation score of 3.35 ± 0.062.

As for PSNPFHCVMKARKSLNGIDR, the amyloid nucleation score was -0.09 ± 0.29.

In turn, CGAMGVVL registered an amyloid nucleation score of 0.112 ± 0.26.

In turn, SFFMYLNIRWIWSMCVNAIE returned an amyloid nucleation score of 0.09 ± 0.58.

Turning to RCSFSGNYIIILLAVRTYFE, the amyloid nucleation score is 1.1 ± 0.47.

Take DHHQGMM: the amyloid nucleation score is -0.213 ± 1.2.

For HCIPLALICGGSSSPVVEYL, the amyloid nucleation score stood at 0.686 ± 0.43.

As for NSAPDP, the amyloid nucleation score is -0.948 ± 2.4.

Turning to YDQNWMRTIDRVNH, the amyloid nucleation score is -0.292 ± 0.5.

For FNFRYPKDRGVSIVGCNFPM, the amyloid nucleation score was -0.065 ± 0.51.

For the substance DNDSWYKYPCFWLCYFPACN, the amyloid nucleation score was 5.17 ± 0.052.

Take FFVKMHIFSFFQVATVVYMH: the amyloid nucleation score came to 0.043 ± 0.33.

With CFSQVCDKFMMEMMFSCFKV, the amyloid nucleation score came to 0.451 ± 0.24.

In the case of CSVFWCFVLGLVNRNLLKRS, the amyloid nucleation score is -0.928 ± 0.4.

NFYSGICMICLGT registered an amyloid nucleation score of 7.307 ± 0.065.

Consider GRPLCSRPMILHMHNITLRM, for which the amyloid nucleation score turned out to be 1.05 ± 0.97.

For VVVVMRR, the amyloid nucleation score is 1.94 ± 0.23.

In the case of SILQFALLMNSRDLVHRGYF, the amyloid nucleation score was 3.38 ± 0.17.

VGTLSRLSFYVVDAVSAQRG returned an amyloid nucleation score of 0.756 ± 0.81.

As for LYAALIIDYA, the amyloid nucleation score was found to be 0.681 ± 0.66.

In turn, FYVPDWYNCSCIIWGRDACA registered an amyloid nucleation score of 4.19 ± 0.056.

On to GFTTMEDCGPREGPTIVDDK, for which the amyloid nucleation score was -0.149 ± 1.3.

PMLNFEIMVRHDRRRLYKVC displayed an amyloid nucleation score of 0.714 ± 0.42.

For the substance LWPFKSFGLVPCTV, the amyloid nucleation score was -0.572 ± 0.69.

As for FCVRICNCRIWCLCSLTKSL, the amyloid nucleation score is -0.624 ± 0.46.

Substance LDTRSRSYVWSDLLRKAKAK showed an amyloid nucleation score of 0.795 ± 0.6.

SPHSLTFSLMVMVRKKMMRS came in with an amyloid nucleation score of 0.012 ± 1.4.

Regarding MFFGWGT, the amyloid nucleation score is 1.19 ± 0.34.

VSYTVSFSFFLFLFNWHSYV had an amyloid nucleation score of 0.147 ± 0.65.

In turn, VSPLWSCFTSGVPTDCWSLG registered an amyloid nucleation score of 0.275 ± 1.2.

Regarding KGLEPLCLRSFFLWRERFRD, the amyloid nucleation score was -0.686 ± 0.49.

As for VPCDIYQCFYLSG, the amyloid nucleation score is 5.25 ± 0.094.

The substance CNWVIRNPYVGPIRSNVHGS had an amyloid nucleation score of 0.124 ± 0.58.

RISSVT: the amyloid nucleation score turned out to be 0.17 ± 0.86.

Take FYKLVSLREIGMIQVIRGLD: the amyloid nucleation score was -0.395 ± 0.47.

Consider ASYRKCLLCIRLNC, for which the amyloid nucleation score was -0.753 ± 0.86.

Substance HNKVATMW registered an amyloid nucleation score of 1.46 ± 0.25.

Take HIGIWTIPSRKEGR: the amyloid nucleation score entry is “inactive”.

As for LYYNFKF, the amyloid nucleation score amounted to 0.321 ± 0.33.

With VIMFSFIS, the amyloid nucleation score came out at 5.04 ± 0.062.

On to SHSGFTCTCWCMALLYGVAS, for which the amyloid nucleation score turned out to be 1.22 ± 0.63.

Regarding FSFRRFCLCMLREGHTRQLG, the amyloid nucleation score was -0.957 ± 2.4.

For the substance WGVFDTETIVWFVYIGTL, the amyloid nucleation score is -0.026 ± 0.32.

Take MQVHARFYSFREEDIAGRAR: the amyloid nucleation score was -0.443 ± 0.52.

As for HYVFRHAWDSSFDVNVGLAQ, the amyloid nucleation score turned out to be 0.564 ± 0.9.

In turn, ASLSPNTASYNLELPSIMHM registered an amyloid nucleation score of 0.283 ± 0.71.

Substance QMTVGQYSCL came in with an amyloid nucleation score of 0.45 ± 1.1.

On to ILKSFLD, for which the amyloid nucleation score was -0.071 ± 0.42.

The substance STTIPRVFGSTYNSYNVSIS had an amyloid nucleation score of 0.384 ± 0.34.

VGGQRKVRSDDVSMDVHTAT: the amyloid nucleation score was determined as 0.924 ± 0.47.

For AYAKLYKLSVLEPGRRVRMQ, the amyloid nucleation score amounted to 1.21 ± 0.57.
